{"source": "the DeepSol protein solubility set"}
{"experiment": "soluble on expression in E. coli; label from the status in PepcDB or PDB records"}
{"sequence": "MNVQETYLKELKARGYQPDEAQQRAVDRLQLCYDEWVAYKARRSSALRKLLVRPELPRGVYMWGGVGRGKSFLMDAFYSCVPVVRKTRLHFHEFMREVHRQLEELRGRADPLDELARRIAKRYRLICFDEFHVSDVADAMILHRLLDQLFANGVQFVMTSNYRPDLLYPDGLHRDRVLPAIALLQEKLDVLNVDAGIDYRKRAMEQVQAYHTPLGAQANSALRDAFAAVAEAPDESPILHIEHREIRAQRKAGGVVWFDFATLCGGPRSQNDYLEIAARFHTVILADVPKMTPRMASEARRFTWLIDVLYDHKVKLLMSAEVPADALYTEGQMANEFHRTVSRIIEMQSREYLEAPRRAVDTTLTLEHHHHHH", "soluble on expression in E. coli": "not soluble"}
{"sequence": "ASKPVEPAKPAEPTKVEFEEKQGKRGVKLGTVAIILSIIFGGGLAYKLHEQQADYQAQIAQLQNQLEKAQASMKQELNQVKEETIEKATTVTHKAEVVLGQQQKSIESLQLAVADVKGRRPNDWLLAEADYLVKLAGRKLFLEHDVESATQLMESADQRIAALNDPSLVKLRKAMANDITKLRTVPLIDRDGLVLRLTALQQQVDKLPLANALLPEAQVVAQHEVSEDISNWQDNLMTSLKDFSENFITFRTRDGNVIPLLSPEQHFYLKENIKAKLETAIKAVYQEQGEIYTTSLTTADKWAMAFFNQDDNAVKEFNKALNQLSQQNIQVEYPAKLESQSQLSDVIRERLRREVTTMTGTGDK", "soluble on expression in E. coli": "not soluble"}
{"sequence": "EHRKVERGILAYQPGKLLVRGDTPLFKIERLLGIDLDHIEAETLAGLIYETLKRVPEEEEQMEVEGLRIIIKKMKGPKIVLAKVLKLD", "soluble on expression in E. coli": "not soluble"}
{"sequence": "MDYQTFEKVNKFINVKAYIFFLTQELKQQYKLSLKELLILAYFYYKNEHSISLKEIIGDILYKQSDVVKNIKSLSKKGFINKSRNEADERRIFVSVTPIQRKKIACVINELDKIIKGFNKERDYIKYQWAPKYSKEFFILFMNIMYSKDFLKYRFNLTFLDLSILYVISSRKNEILNLKDLFESIRFMYPQIVRSVNRLNNKGMLIKERSLADERIVLIKINKIQYNTIKSIFTDTSKILKPRKFFF", "soluble on expression in E. coli": "not soluble"}
{"sequence": "MASPENVILVHEISKLKTKEELWNPYEWYQFMRDNHPVHYDDEQDVWNVFLYDDVNRVLSDYSLFSSRRERRQFAIPPLETRININSTDPPEHRNVRSIVSKAFTPRSLEQWKPRIQSIANELVKDIENCSEVDIVEQFAAPLPVTVISDLLGVPTTDRKKIKAWSDILFMPYSKEKFNDLDAEKGIALNEFKAYLLPIVQEKRYHLTDDIISDLIRAEYEGERLTDEEIVTFSLGLLAAGNETTTNLIINSFYCFLVDSPATYKEVREKPKLISKAVEEVLRYRFPVTLARRITEDTNIFGPLMKKDQMVVAWVSAANLDEKKFSQASKFNIHRIGNEKHLTFGKGPHFCLGAPLARLEAEIALTTFINAFEKIALSPSFNIEQCILENEQTLKFLPIRLKPQ", "soluble on expression in E. coli": "not soluble"}
{"sequence": "MSLSAGDSMPGPKSTFRVGVWEDRNKKCRRTMEDTHAFLYNFVQTPALNDASAKDKPEGDDLVTSDMVESDNGYFAIFDGHAGTFAADWCGKKLHIILEDIIRKNPNALIPEVLDQAFTAADAQLEKLPLKNSGCTAAVAVLRWEDRASNDRSAIKPVKPEEPIEMDKANDGSSNEEATKATNSKGKGSGRQRVLYTANVGDARIILCRGGKALRLSYDHKGSDEVEGKRIAAAGGLILNNRVNGVLAVTRALGDAYMKKLVTGHPYTTETVIQPDSDEFIIIACDGIWDVCSDQEAVDLVRNVNDPISASKQLVDYALNRFSTDNLSCMVVRLDQNKEAAVEEGHHHHHH", "soluble on expression in E. coli": "soluble"}
{"sequence": "GMTYQALMFDIDGTLTNSQPAYTTVMREVLATYGKPFSPAQAQKTFPMAAEQAMTELGIAASEFDHFQAQYEDVMASHYDQIELYPGITSLFEQLPSELRLGIVTSQRRNELESGMRSYPFMMRMAVTISADDTPKRKPDPLPLLTALEKVNVAPQNALFIGDSVSDEQTAQAANVDFGLAVWGMDPNADHQKVAHRFQKPLDILELFK", "soluble on expression in E. coli": "soluble"}
{"sequence": "MGHHHHHHSHMANSMANSMNNRTRLALIICNTEFDHLPPRNGADFDITGMKELLEGLDYSVDVEENLTARDMESALRAFATRPEHKSSDSTFLVLMSHGILEGICGTVHDEKKPDVLLYDTIFQIFNNRNCLSLKDKPKVIIVQACRGANRGELWVRDSPASLEVASSQSSENLEEDAVYKTHVEKDFIAFCSSTPHNVSWRDSTMGSIFITQLITCFQKYSWCCHLEEVFRKVQQSFETPRAKAQMPTIERLSMTRYFYLFPGN", "soluble on expression in E. coli": "not soluble"}
{"sequence": "MSLGPTRANPKAVKPFIEQKEKKMVLVVDWHTKTLAATMNGRRPQDEDAMVVHGPLKNFPNARLKAIFDGHGGYSVSRRCASVAYGYLGAMKNLSQESFRSACLQMDADMRADTLKGGSTGLMVIIEKVDDPESRDGIYFNVHAANVGDSRGLILHSDGTYTIMSKDHKPTAEVERERIKRAGGFLLRRLGVWRVDGRLALSRAFGDFALKDRLDMKPNEQKVVALPDVNVFKAKPGDIILMGCDELANTLKNIQWDGGTVCSRRPRGRRSRDNVSIMLTKLVKRPIRNTQVKRFDYSFTGERYVLPSEEGHHHHHH", "soluble on expression in E. coli": "not soluble"}
{"sequence": "MPPCPPQQNRNRLSQLPVGELGEMELTWQEIMSITELQGLNVPSETSFEPQAPTPYPGPLPPPTYCPCSIHPDAGFSLPPPSYELPASTPHVPELPYSYGNVAIPVSKPLTLSGLLNEPLPDHLALLDIGLPVGQPKPQEDPESDSGLSLNYSDAESLELEGMEAGRRRSEYADMYPVEYPYSLMPNSLAHPNYTLPPTETPLALESSSGPVRAKPAVRGEAGSRDERRALAMKIPFPTDKIVNLPVDDFNELLAQYPLTESQLALVRDIRRRGKNKVAAQNCRKRKLETIVQLERELERLSSERERLLRARGEADRTLEVMRQQLAELYHDIFQHLRDESGNSYSPEEYVLQQAADGAIFLVPRGTKMEATD", "soluble on expression in E. coli": "soluble"}
{"sequence": "MRKRLSAPELRLSLTKGPGNDGASPTQSAPSSPDGSSDLEIDELETPSDSEQLDSGHEFEWEDELPRAEGLGTSETAERLGRGCMWDVTGEDGHHWRVFRMGPREQRVDMTVIEPYKKVLSHGGYHGDGLNAVILFASCYLPRSSIPNYTYVMEHLFRYMVGTLELLVAENYLLVHLSGGTSRAQVPPLSWIRQCYRTLDRRLRKNLRALVVVHATWYVKAFLALLRPFISSKFTRKIRFLDSLGELAQLISLDQVHIPEAVRQLDRDLHGSGGT", "soluble on expression in E. coli": "not soluble"}
{"sequence": "MMLENKSINELYSIKLIEEADTKRLIKFMNKYMNSKHEFEMSKRIFLSDQILNQECYNDINIRSSIYNFYEEYIVMEKEGKIAALIALDINRNNLSKVLNLNLIICEEGEMSRLRDMFIFATEILPEYSIVEPTKIRTYIRENGIFTEYWKNKLMEAGFSHEVTRENEVGNGVALTTMIIKMK", "soluble on expression in E. coli": "not soluble"}
{"sequence": "GFGPHQRLEKLDSLLSDYDILSLSNIQQHSVRKRDLQTSTHVETLLTFSALKRHFKLYLTSSTERFSQNFKVVVVDGKNESEYTVKWQDFFTGHVVGEPDSRVLAHIRDDDVIIRINTDGAEYNIEPLWRFVNDTKDKRMLVYKSEDIKNVSRLQSPKVCGYLKVDNEELLPKGLVDREPPEGKT", "soluble on expression in E. coli": "not soluble"}
{"sequence": "GPVPTPPDNIQVQENFNISRIYGKWYNLAIGSTCPWLKKIMDRMTVSTLVLGEGATEAEISMTSTRWRKGVCEETSGAYEKTDTDGKFLYHKSKWNITMESYVVHTNYDEYAIFLTKKFSRHHGPTITAKLYGRAPQLRETLLQDFRVVAQGVGIPEDSIFTMADRGECVPGEQEPEPILIPRV", "soluble on expression in E. coli": "soluble"}
{"sequence": "MSLHVLTLAIARAASIDELALAANKQRELVESLMSRGVRTRFVMELIAAVNEQIIEKAFELVVPPALHDQCCLVVLGSEGRGEQILKTDQDNALIIQDGLEWHQCQPIMETLTHTLLQLGYPLCPGKVMVNNPKWVRSQSDWKRTLTDWVKAARPEQVMDIAIFADAHAVAGNRALLAPVKAHLQHLMAGQELILAEFTRPALNFSVPLTLFGNVKSSKQGIDIKQGGIFPIVHGVRALSLEHAIDANNTFDRIEALVKKRVLEQETGDNLSEAFKLFLKLRLAQQLGNQHSTNQLDFKQLDRTERDLLRHSLHVVKKFKQWLGYHYQIRDEGHHHHHH", "soluble on expression in E. coli": "soluble"}
{"sequence": "MDERPVLFFDSGIGGLTVLREVRSLIPEKQFIYVADDVGFPYGNWEENVLKNRILKIFTNLLTVYNPALCVIACNTVSTLMIADLRERFPHILFVGTVPAIKLAAEQTKSGFISVLATPGTVKRTYTHELINSFAGQCHVQLVGSEKLAGFAENYLRGQSVDLEELRNEILPCFVKKNGKHTDIIVLACTHYPFLLHFFREQALWHVQWIDPSKAIAKRTRSLLPQRIHHQTVKKYEDFALFTSQNITSSTKRLLKEFSLNITKGVDFKV", "soluble on expression in E. coli": "not soluble"}
